Experimental data from patent publication US9932382B2, “Kv2.1 channel-derived peptides and methods of use” (University of Pittsburgh—Of the Commonwealth System of …, priority 2014, dated 2018).

Tested on: neurons
Assay: Current clamp / dynamic clamp electrical properties of neurons
Type: cell-based
Protocol: For electrophysiological experiments, mixed cortical neuronal/glial cultures were prepared from embryonic day 16 (E16) Sprague-Dawley rats (Charles River Laboratories, Wilmington, Mass., USA). Donor rats were euthanized by gradual CO2 exposure. Cortices were dissociated with trypsin, and the resultant cell suspension, adjusted to 670,000 cells per well, was plated on glass coverslips in 6-well plates as described previously (Hartnett et al., J Neurochem 68, 1836-1845, 1997). Non-neuronal cell proliferation was inhibited after two weeks in culture with 1-2 μM cytosine arabinoside, and cultures utilized at three to four weeks in vitro. For neuronal transfection, cells were treated for five hours in serum-free medium with 2 μL LIPOFECTAMINE™ 2000 (Invitrogen, Carlsbad, Calif.), 50 μL Optimem (GIBCO, Grand Island, N.Y.), and 1.5 μg DNA per well. For CHO cell transfections, cells were plated on coverslips in 24-well plates at a density of 5.6×10^4 cells per well for electrophysiological measurements or in 100 mm dishes at a density of 1.7×10^6 cells per dish for biochemical studies. Cells were treated for 3-4 hours in serum-free medium with a total of 1.2 μL LIPOFECTAMINE™ and 0.28 μg DNA per well for electrophysiology, or 55.1 μL LIPOFECTAMINE™ and 7.33 μg DNA per dish for biochemistry. Following transfection, cells were maintained in F12 medium containing fetal bovine serum at 37° C., 5% CO2 for 24 hours prior to experimentation.
Current recordings were performed on eGFP-positive co-transfected neurons or CHO cells using the whole-cell patch clamp configuration technique as described previously (McLaughlin et al., J Neurosci 21, 3303-3311, 2001). The intracellular (electrode) solution contained (in mM): 100 K-gluconate, 11 EGTA, 10 KCl, 1 MgCl2, 1 CaCl2×2H2O, 10 HEPES; pH adjusted to 7.2 with concentrated KOH; 2.2 ATP and 0.33 GTP were added and the osmolarity was adjusted to 280 mOsm with sucrose. The extracellular solution contained (in mM): 115 NaCl, 2.5 KCl, 2.0 MgCl2, 10 HEPES, 10 D-glucose; 0.25 μM tetrodotoxin; pH adjusted to 7.2. Measurements were obtained under whole-cell voltage clamp with an Axopatch-1D amplifier and pClamp software (Molecular Devices, Sunnyvale, Calif.), using 2-3 MΩ recording electrodes. Electrodes were pulled from 1.5 mm borosilicate glass (Warner Instruments, Hamden, Conn.) with a model P-97 mechanical pipette puller (Sutter Instruments, Novato, Calif.). Series resistance was partially compensated (80%) in all cases. Currents were filtered at 2 kHz and digitized at 10 kHz with a Digidata 1440A Digitizer (Molecular Devices). K^+ currents were evoked with incremental 10 mV voltage steps to +80 mV from a holding potential of −80 mV. To determine current density values, steady-state current amplitudes were measured 180 msec after the initiation of the +10 mV step and normalized to cell capacitance. For current clamp experiments, the intracellular (electrode) solution contained (in mM): 94 K-gluconate, 30 KCl, 10 phosphocreatine di-tris salt, 10 HEPES, 0.2 EGTA, 4 ATP, 0.3 GTP; pH adjusted to 7.3 with concentrated KOH. […] By repeatedly adjusting the scaling factor k, an automated binary search algorithm determined threshold synaptic conductance (thresh-gsyn), the conductance required to reach firing threshold (Kullmann et al., J Neurophysiol 91, 542-54, 2004).
It was next evaluated whether C1a441-522 was sufficient to protect neurons against oxidative injury. […]

B1: C1a441-522: distal segment of C1a, residues 441-522 of rat Kv2.1 (protein, UniProt P15387 441-522, looked up, fragment)
chain: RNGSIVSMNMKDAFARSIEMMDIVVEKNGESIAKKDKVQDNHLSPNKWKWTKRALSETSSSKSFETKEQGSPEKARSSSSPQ
  overall effect of expression on neurons: relatively innocuous to neurons
1 sec depolarizing current steps, 15-120 pA
  firing frequency as a function of depolarizing current versus vector-expressing neurons: small but significant increase
Current clamp
  input resistance versus vector-expressing neurons: no differences
  resting membrane potential versus vector-expressing neurons: no differences
Dynamic clamp
  threshold synaptic conductance versus vector-expressing neurons: no differences
